Experimental findings from patent US20220033483A1 (GUAGNDONG FEIPENG BIOLOGICAL, published 2022) are described below.

Numbering of substitutions follows the chain as printed.

The experiment addresses T1, cTnI quality control product recombinant protein (human, UniProt P19429 1-210, limits assumed).
T1 construct: the assay paragraphs only say cTnI; also called cardiac troponin I; cTnI antigen
The experiment is described as follows: AMC biosensor, antibody on sensor. How it is done:
Operating process: it is equilibrated in Buffer 1 (PBST) for 60 s, the antibody is immobilized in an antibody solution for 300 s, incubated in Buffer 2 (PBST) for 180 s, bound in antigen solution for 420 s, dissociated in the Buffer 2 for 1200 s, 10 mM of GLY solution with pH 1.69 and Buffer 3 are used for sensor regeneration, and data is output.

T1 sequence (P19429 whole entry): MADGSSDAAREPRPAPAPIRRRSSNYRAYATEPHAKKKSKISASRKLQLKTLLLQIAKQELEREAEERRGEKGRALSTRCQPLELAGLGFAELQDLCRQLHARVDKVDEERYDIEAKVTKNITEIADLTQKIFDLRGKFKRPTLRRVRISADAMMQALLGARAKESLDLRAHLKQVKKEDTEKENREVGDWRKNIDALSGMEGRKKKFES

B1: Mutation 1-23 (antibody, V domains shown)
VH: QVQLQQSGTELAKPGASVKFSCKASGYTFTSYWMYWIKQRPGQGLEWIGYINPSTGHTDYNQRFKDKATLTADKSSSTAYMQLNSLTSEDSAVYYCARKYWGPFGMDYWGQGTSVTVSS
VL: EIFLTQSPAIMSASPGEKVTMTCSASSSVSYVHWYQQKSGTSPKRWIYDTSKLASGIPVRFSGSGSGTSYSLTISSMEAEDAATYYCQQWSSNPYTFGGGTKLEIKR
One may read the Kd as the concentration at which binding is half-saturated. The koff is the first-order rate constant of dissociation. As a reminder, the kon is a measure of how fast the partners come together. With B1, the Kd worked out at 1.76 nM, the koff amounted to 2.04e-05 s⁻¹ and the kon is 11600 M⁻¹ s⁻¹.

B2: Mutation 1-33 (antibody, V domains shown)
VH: B1 VH with T30S, R63K, W101F
VL: B1 VL with S27T, L53I
Regarding B2, the Kd was 2.75 nM, the off-rate (koff) was determined as 9.53e-05 s⁻¹ and the kon amounted to 34700 M⁻¹ s⁻¹.

B3: Mutation 1-29 (antibody, V domains shown)
VH: B1 VH with T30S, T55S, R63K
VL: B1 VL with L53I
For B3, the Kd came out at 0.96 nM, the koff was 1.52e-05 s⁻¹ and the kon is 15800 M⁻¹ s⁻¹.

B4: Mutation 1-49 (antibody, V domains shown)
VH: B1 VH with S31T, I51L, T55S, R63K, W101F
VL: B1 VL with S27T, I47L, N93Q
Regarding B4, the Kd is 5.94 nM, the koff worked out at 0.000195 s⁻¹ and the kon worked out at 32800 M⁻¹ s⁻¹.

B5: Mutation 1-50 (antibody, V domains shown)
VH: B1 VH with I51L, R63K, K99R
VL: B1 VL with S27T, S28T
Take B5: the Kd was found to be 1.09 nM, the off-rate (koff) was determined as 1.11e-05 s⁻¹ and the kon stood at 10200 M⁻¹ s⁻¹.

B6: Mutation 1-52 (antibody, V domains shown)
VH: B1 VH with S31T, K99R
VL: B1 VL with S27T, L53I
Regarding B6, the equilibrium dissociation constant (Kd) was found to be 1.01 nM, the koff turned out to be 1.38e-05 s⁻¹ and the kon worked out at 13600 M⁻¹ s⁻¹.

B7: Mutation 1-7 (antibody, V domains shown)
VH: B1 VH with S31T, I51L, R63K, K99R, W101Y
VL: B1 VL with S27T, I47L, S92T
Turning to B7, the Kd amounted to 2.92 nM, the koff stood at 4.05e-05 s⁻¹ and the kon is 13900 M⁻¹ s⁻¹.

B8: Mutation 1-41 (antibody, V domains shown)
VH: B1 VH with T30S, K99R, W101Y
VL: B1 VL with S27T, L53I, N93Q
For B8, the Kd amounted to 3.27 nM, the koff was 6.06e-05 s⁻¹ and the kon was 18500 M⁻¹ s⁻¹.

B9: Mutation 1-30 (antibody, V domains shown)
VH: B1 VH with I51L, T55S, K99R, W101F
VL: B1 VL with S27T, S28T, I47L
Take B9: the Kd worked out at 7.2 nM, the koff was found to be 0.000258 s⁻¹ and the kon is 35800 M⁻¹ s⁻¹.

B10: Mutation 1-35 (antibody, V domains shown)
VH: B1 VH with S31T, R63K, K99R
VL: B1 VL with S92T, N93Q
Regarding B10, the Kd came out at 2.6 nM, the koff is 4.92e-05 s⁻¹ and the kon is 18900 M⁻¹ s⁻¹.

B11: Mutation 1-6 (antibody, V domains shown)
VH: B1 VH with I51L, T55S, K99R, W101F
VL: B1 VL with S28T, I47L, S92T
Take B11: the Kd worked out at 2.32 nM, the off-rate (koff) is 6.03e-05 s⁻¹ and the kon was 26000 M⁻¹ s⁻¹.

B12: Mutation 1-37 (antibody, V domains shown)
VH: B1 VH with T30S, I51L, W101F
VL: B1 VL with S27T, S92T, N93Q
For B12, the Kd stood at 8.01 nM, the koff is 0.000268 s⁻¹ and the kon was determined as 33400 M⁻¹ s⁻¹.

B13: Mutation 1-43 (antibody, V domains shown)
VH: B1 VH with R63K, W101F
VL: B1 VL with S27T, S92T, N93Q
On to B13, for which the Kd came to 12.9 nM, the koff is 0.000368 s⁻¹ and the kon stood at 28600 M⁻¹ s⁻¹.

B14: Mutation 1-39 (antibody, V domains shown)
VH: B1 VH with S31T, I51L, R63K
VL: B1 VL with S27T, S92T, N93Q
As for B14, the Kd was found to be 1.03 nM, the koff was 2.79e-05 s⁻¹ and the kon was 27000 M⁻¹ s⁻¹.

B15: Mutation 1-46 (antibody, V domains shown)
VH: B1 VH with I51L, T55S, R63K, K99R, W101F
VL: B1 VL with S27T
For the molecule B15, the dissociation constant Kd was found to be 5.57 nM, the koff worked out at 0.000118 s⁻¹ and the kon stood at 21200 M⁻¹ s⁻¹.

B16: Mutation 1-3 (antibody, V domains shown)
VH: B1 VH with S31T, R63K, W101F
VL: B1 VL with S27T
With B16, the Kd stood at 9.45 nM, the koff stood at 0.000181 s⁻¹ and the kon came to 19200 M⁻¹ s⁻¹.

B17: Mutation 1-5 (antibody, V domains shown)
VH: B1 VH with T30S, I51L, R63K
VL: B1 VL with L53I, S92T
As to B17, the Kd is 0.238 nM, the koff amounted to 1.17e-05 s⁻¹ and the kon was found to be 49300 M⁻¹ s⁻¹.

B18: Mutation 1-38 (antibody, V domains shown)
VH: B1 VH with I51L, T55S, R63K, W101Y
VL: B1 VL with S28T, I47L
As to B18, the Kd was found to be 7.3 nM, the koff was 0.000223 s⁻¹ and the kon is 30500 M⁻¹ s⁻¹.

B19: Mutation 1-51 (antibody, V domains shown)
VH: B1 VH with S31T, K99R, W101Y
VL: B1 VL with S27T, L53I, N93Q
With B19, the Kd is 0.81 nM, the off-rate (koff) is 2.15e-05 s⁻¹ and the kon worked out at 26500 M⁻¹ s⁻¹.

B20: Mutation 1-42 (antibody, V domains shown)
VH: B1 VH with T55S, R63K, K99R
VL: B1 VL with S28T, I47L
Regarding B20, the Kd was 7.37 nM, the dissociation rate constant (koff) is 0.000362 s⁻¹ and the kon was 49100 M⁻¹ s⁻¹.

B21: Mutation 1-56 (antibody, V domains shown)
VH: B1 VH with S31T, I51L, T55S, K99R
VL: B1 VL with S27T, L53I
With B21, the Kd came to 6.07 nM, the koff turned out to be 8.86e-05 s⁻¹ and the kon turned out to be 14600 M⁻¹ s⁻¹.

B22: Mutation 1-26 (antibody, V domains shown)
VH: B1 VH with S31T, I51L, R63K, K99R
VL: B1 VL with S28T, I47L
On to B22, for which the Kd is 2.08 nM, the koff was found to be 3.31e-05 s⁻¹ and the kon came out at 15900 M⁻¹ s⁻¹.

B23: Mutation 1-27 (antibody, V domains shown)
VH: B1 VH with I51L, T55S, R63K, W101F
VL: B1 VL with S27T
In the case of B23, the Kd came out at 9.42 nM, the koff came out at 0.000372 s⁻¹ and the kon was determined as 39500 M⁻¹ s⁻¹.

B24: Mutation 1-2 (antibody, V domains shown)
VH: B1 VH with T55S, K99R
VL: B1 VL with S28T, I47L, N93Q
As for B24, the Kd was 7.96 nM, the koff was determined as 0.000302 s⁻¹ and the kon was 37900 M⁻¹ s⁻¹.

B25: Mutation 1-45 (antibody, V domains shown)
VH: B1 VH with T30S, I51L
VL: B1 VL with S28T, I47L, N93Q
B25: the Kd came to 3.7 nM, the koff was found to be 9.65e-05 s⁻¹ and the kon worked out at 26100 M⁻¹ s⁻¹.

B26: Mutation 1-31 (antibody, V domains shown)
VH: B1 VH with S31T, R63K, K99R, W101Y
VL: B1 VL
Regarding B26, the Kd came out at 12.7 nM, the koff came out at 0.000365 s⁻¹ and the on-rate (kon) turned out to be 24000 M⁻¹ s⁻¹.

B27: Mutation 1-11 (antibody, V domains shown)
VH: B1 VH with T55S, R63K
VL: B1 VL with S27T, S92T, N93Q
B27: the dissociation constant (Kd) turned out to be 0.221 nM, the koff came to 4.49e-06 s⁻¹ and the kon is 20300 M⁻¹ s⁻¹.

B28: Mutation 1-48 (antibody, V domains shown)
VH: B1 VH with T30S, I51L, K99R
VL: B1 VL with S28T, L53I, S92T
As for B28, the dissociation constant Kd turned out to be 6.6 nM, the dissociation rate constant (koff) worked out at 8.58e-05 s⁻¹ and the kon was 13000 M⁻¹ s⁻¹.
